# Test results published in article PMC3001090.
# T1: Rv1495 (MazF homolog) (Mycobacterium tuberculosis, UniProt P9WII5 1-105)
# T1 sequence: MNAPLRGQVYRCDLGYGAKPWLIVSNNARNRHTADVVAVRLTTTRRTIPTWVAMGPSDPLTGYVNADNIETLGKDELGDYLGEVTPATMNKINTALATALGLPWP
# Biological target: T1, Rv1495 (MazF homolog)
# Experiment: EMSA
binder,measurement,value
CAGTGAGCGAGCTTCCGCTTGACATCCCAATA (ssDNA) [32-mer TopA substrate oligonucleotide],binding result,no binding
